This is an account of results in paper PMC4063720.

As a reminder, the Kd is the constant that tells how readily two partners part at equilibrium. Read a high Kd as lower affinity.

The target in data set [1] is Hfq (Pseudomonas aeruginosa PAO1) (UniProt Q9HUM0). Kind of data set: competition. Particulars: EMSA: 10 mM Tris-HCl pH 8.0, 10 mM MgCl2, 60 mM NaCl, 10 mM NaH2PO4, 10 mM DTT, 25 ng tRNA in 10 ul, 37 C 30 min; 4% PAGE in Tris-borate; filter binding buffer ….
Data set [2] shares this target. Kind of data set: EMSA. The settings on record: EMSA: 10 mM Tris-HCl pH 8.0, 10 mM MgCl2, 60 mM NaCl, 10 mM NaH2PO4, 10 mM DTT, 25 ng tRNA in 10 ul, 37 C 30 min; 4% PAGE in Tris-borate; filter binding buffer …. In general terms: Mobility shift assays separate free from complexed probe on a gel.
The target in data set [3] is HfqK56A K56A (Pseudomonas aeruginosa PAO1) (UniProt Q9HUM0). Kind of data set: EMSA. Particulars: EMSA: 10 mM Tris-HCl pH 8.0, 10 mM MgCl2, 60 mM NaCl, 10 mM NaH2PO4, 10 mM DTT, 25 ng tRNA in 10 ul, 37 C 30 min; 4% PAGE in Tris-borate; filter binding buffer ….
For data set [4], the target named is HfqY25D Y25D (Pseudomonas aeruginosa PAO1) (UniProt Q9HUM0). The data set is described as follows: EMSA. The settings on record: EMSA: 10 mM Tris-HCl pH 8.0, 10 mM MgCl2, 60 mM NaCl, 10 mM NaH2PO4, 10 mM DTT, 25 ng tRNA in 10 ul, 37 C 30 min; 4% PAGE in Tris-borate; filter binding buffer ….
Data set [5] has as its target Hfq (Pseudomonas aeruginosa PAO1) (UniProt Q9HUM0). Kind of data set: filter binding. The settings on record: EMSA: 10 mM Tris-HCl pH 8.0, 10 mM MgCl2, 60 mM NaCl, 10 mM NaH2PO4, 10 mM DTT, 25 ng tRNA in 10 ul, 37 C 30 min; 4% PAGE in Tris-borate; filter binding buffer ….
For data set [6], the system named is Hfq (Pseudomonas aeruginosa PAO1). The data set is described as follows: filter binding. Particulars: Hfq-hexamer concentration; duplicate; EMSA: 10 mM Tris-HCl pH 8.0, 10 mM MgCl2, 60 mM NaCl, 10 mM NaH2PO4, 10 mM DTT, 25 ng tRNA in 10 ul, 37 C 30 min; 4% PAGE in Tris-borate; filter binding buffer ….

In the case of “GGCACAACAACAAUAACAAGCAACGACGAAGACAAUAAAAACAACACGUAACGACUCCAGCACAACAAAAACAAAAUCGCGGAGGCGCAGCUAACUGAUUCUUUUGGAGAGGAGUUGCUGUCGGGACCCGUCCCGCAGCCAGUCGGAAGAAG [CrcZ151 RNA]”, the binding result in data set [1] was “binds”; in data set [2], “binds”; in data set [3] it was “binds”; in data set [4], “binds more weakly”.

In the case of “GAUCAGGUCGUGCGCAUCAGCGUCGAUGUCGCGGGACCGAACCUAACGCAUACGUACAGAGCAAAUGGGCUCUCCCGGGGUUACCCGGGAGGGCCUUUUUUCGUCCCGAAAAAAUAACAACAAGAGGUGAUAUCCAUGCGUCACGGCGAUAUUUCCUGCAGAAAAAA [amiE -134-+20 RNA]”, the binding result in data set [2] is reported as “binds”; in data set [3], “binds”; in data set [4], “no binding”. Further, the Kd in data set [5] is 67 nM.

Regarding “GCGUACAGGGAACACGCAACCCCGAAGGAUCGGGGAAGGGACGUCGCCAGGGAGGCGAUUCAUCAGGAUGAUGACGAGGGACUGAAGAGUGGGCGGGGUAAUACCCCGCCCCUUUUUUUUGCCUGCCGUUUUACUCGUCGCCCUGCAGUUU [RsmZ RNA]”, the binding entry in data set [1] was “no binding”.

amiE -134-+20 RNA yielded a Kd in data set [6] of 67 nM.
